Measurements taken from patent US20150025225A1 (SHIONOGI, published 2015).

T1: Baboon EL-C2 tag (baboon, UniProt Q9Y5X9 21-500 (human entry), limits assumed)
T1 construct: used as heparin extract of transfected HEK293F cells; also called baboon EL heparin extract
T1 chain: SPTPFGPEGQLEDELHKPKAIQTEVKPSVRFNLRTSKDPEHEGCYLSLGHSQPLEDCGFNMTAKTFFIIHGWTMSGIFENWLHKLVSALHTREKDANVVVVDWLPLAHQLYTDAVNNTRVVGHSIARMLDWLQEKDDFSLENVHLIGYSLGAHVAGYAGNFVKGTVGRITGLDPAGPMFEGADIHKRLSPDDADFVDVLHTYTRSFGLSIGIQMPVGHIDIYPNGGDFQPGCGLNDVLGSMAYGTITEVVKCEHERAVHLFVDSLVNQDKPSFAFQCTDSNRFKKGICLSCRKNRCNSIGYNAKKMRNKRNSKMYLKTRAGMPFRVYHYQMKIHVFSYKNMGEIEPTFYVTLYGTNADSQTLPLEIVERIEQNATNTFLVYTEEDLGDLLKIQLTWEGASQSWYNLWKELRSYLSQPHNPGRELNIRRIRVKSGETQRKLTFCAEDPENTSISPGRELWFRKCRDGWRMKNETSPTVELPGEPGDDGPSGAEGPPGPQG

T2: cynomolgus monkey EL-C2 tag (cynomolgus monkey, UniProt Q9Y5X9 21-500 (human entry), limits assumed)
T2 construct: used as heparin extract of transfected HEK293F cells; also called cynomolgus EL
T2 chain: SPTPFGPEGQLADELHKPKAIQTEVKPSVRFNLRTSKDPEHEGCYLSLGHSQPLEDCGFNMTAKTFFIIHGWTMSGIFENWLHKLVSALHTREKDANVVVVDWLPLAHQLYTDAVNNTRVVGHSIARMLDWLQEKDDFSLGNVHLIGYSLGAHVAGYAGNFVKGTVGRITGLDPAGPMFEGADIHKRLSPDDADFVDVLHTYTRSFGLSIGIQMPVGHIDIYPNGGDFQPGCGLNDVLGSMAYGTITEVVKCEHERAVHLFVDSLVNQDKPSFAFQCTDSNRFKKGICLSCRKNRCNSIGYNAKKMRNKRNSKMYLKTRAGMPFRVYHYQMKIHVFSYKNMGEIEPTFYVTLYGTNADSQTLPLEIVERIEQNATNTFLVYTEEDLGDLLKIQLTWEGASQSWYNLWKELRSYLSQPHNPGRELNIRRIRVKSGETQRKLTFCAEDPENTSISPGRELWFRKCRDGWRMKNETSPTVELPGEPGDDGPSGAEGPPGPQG

T3: human EL[331-459]-mouse EL-C2 tag (human/mouse chimera, UniProt Q9WVG5 21-500 (mouse entry))
T3 chain: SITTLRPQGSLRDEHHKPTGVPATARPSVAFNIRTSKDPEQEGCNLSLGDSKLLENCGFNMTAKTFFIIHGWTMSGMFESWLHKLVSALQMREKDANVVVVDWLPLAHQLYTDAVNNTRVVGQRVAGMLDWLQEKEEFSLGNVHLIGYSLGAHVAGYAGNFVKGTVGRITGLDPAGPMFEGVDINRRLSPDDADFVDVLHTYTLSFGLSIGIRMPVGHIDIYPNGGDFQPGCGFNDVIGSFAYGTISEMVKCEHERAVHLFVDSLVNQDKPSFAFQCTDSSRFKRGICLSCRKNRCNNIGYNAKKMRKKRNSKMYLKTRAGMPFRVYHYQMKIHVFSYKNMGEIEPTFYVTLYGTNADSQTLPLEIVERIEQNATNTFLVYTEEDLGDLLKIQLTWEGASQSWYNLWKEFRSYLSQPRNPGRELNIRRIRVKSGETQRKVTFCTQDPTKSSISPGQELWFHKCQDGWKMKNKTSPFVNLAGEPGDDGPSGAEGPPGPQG

T4: rabbit EL-C2 tag (rabbit)
T4 chain: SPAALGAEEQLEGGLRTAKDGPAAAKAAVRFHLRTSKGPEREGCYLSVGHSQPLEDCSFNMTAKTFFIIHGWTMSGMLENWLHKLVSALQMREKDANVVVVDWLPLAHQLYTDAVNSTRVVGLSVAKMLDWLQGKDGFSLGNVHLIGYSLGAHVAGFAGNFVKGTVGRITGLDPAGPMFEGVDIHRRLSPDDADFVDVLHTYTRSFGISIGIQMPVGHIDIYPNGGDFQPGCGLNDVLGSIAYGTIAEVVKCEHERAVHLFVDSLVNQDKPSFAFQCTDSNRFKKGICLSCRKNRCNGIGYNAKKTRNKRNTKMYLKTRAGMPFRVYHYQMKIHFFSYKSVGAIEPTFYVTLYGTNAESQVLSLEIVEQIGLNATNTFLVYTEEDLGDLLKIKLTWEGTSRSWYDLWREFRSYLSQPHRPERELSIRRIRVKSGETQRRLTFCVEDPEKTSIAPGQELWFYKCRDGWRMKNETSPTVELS


Experiments:
Baboon EL-C2 tag [1] = molecular target: T1, Baboon EL-C2 tag; assay: Biacore SPR; EL heparin extract captured by anti-C2-tag antibody on CM5, antibody as analyte, bivalent fit
Description: (§1) The binding affinities of anti-EL antibodies were measured using Biacore. Anti-C2-tag antibody was immobilized on a sensor chip CM5 (GE HealthCare) using amine-coupling and baboon EL heparin extract or cynomolgus monkey heparin extract diluted with HBS-P (GE Healthcare) was added and EL were captured on the sensor chip. Then anti-EL antibodies diluted with HBS-P were added and the binding affinities were calculated by bivalent fitting of BIAevaluation software (FIG. 9A-G).

[2] = molecular target: T2, cynomolgus monkey EL-C2 tag; assay: as above
Description: as §1

Baboon EL-C2 tag [3] = molecular target: T1, Baboon EL-C2 tag; assay: Biacore SPR; EL captured by anti-C2-tag antibody, antibody as analyte, bivalent fit; column head prints nM, kd/ka gives M
Description: as §1

[4] = molecular target: T2, cynomolgus monkey EL-C2 tag; assay: as above
Description: as §1

[5] = molecular target: T3, human EL[331-459]-mouse EL-C2 tag; assay: cell-based or functional assay
Baboon EL-C2 tag [6] = molecular target: T1, Baboon EL-C2 tag; assay: cell-based or functional assay
[7] = molecular target: T2, cynomolgus monkey EL-C2 tag; assay: cell-based or functional assay
rabbit EL-C2 tag = molecular target: T4, rabbit EL-C2 tag; assay: cell-based or functional assay

koff (Baboon EL-C2 tag [1]) | kon (Baboon EL-C2 tag [1]) | koff [2] | kon [2] | Kd (Baboon EL-C2 tag [3]) | Kd [4] | Neutralizing activity_IC50 [5] | Neutralizing activity_IC50 (Baboon EL-C2 tag [6]) | Neutralizing activity_IC50 [7] | Neutralizing activity_IC50 (rabbit EL-C2 tag) | Binder
0.00021 s⁻¹ | 350000 M⁻¹ s⁻¹ | 0.00018 s⁻¹ | 880000 M⁻¹ s⁻¹ | 0.6 nM | 0.2 nM | 15 nM | 7.1 nM | 6.2 nM | 201 nM | 12B10 antibody (antibody, IgG2a, V domains shown) VH: QVTLKESGPGILKPSQTLSLTCSFSGFSLSTSGMGVGWIRQPSGKGLEWLAHIWWNDEKYYNPSLKSQLTISKDTSRNQVFLKITSVDTADTATYYCARSYDGSPFPSWGQGTLVTVSA VL: DIQMTQSPSSLSASLGGKVTITCKASQDINKYIAWFQHKPGKGPRLLMAYPFTLQPGIPSRFSGNGSGRDYSFSISNLEPEDIATYYCLQYDNLLWTFGGGTRLEIK
0.00056 s⁻¹ | 140000 M⁻¹ s⁻¹ | 0.00033 s⁻¹ | 250000 M⁻¹ s⁻¹ | 4 nM | 1.3 nM | 5.3 nM | 4.6 nM | 4.7 nM | 37 nM | 47B2 antibody (antibody, IgG2a, V domains shown) VH: QVALKESGPGILQPSQTLSLTCSFSGFSLSTSGMGVGWIRQPSGKGLEWLAHIWWHGNKYYSTGLKSRLTISKDTSNNQVFLKIASVDTADTATYYCARISAGYPLDYWGQGTSVTVSS VL: DIQMTQSPSSLSASLGGKVTITCKASQDINKYIVWYQHKPGKGPRLLIHYTSTLQPGFPSRFSGSGSGRDYSLSITNLEPEDIATYYCLQYDNLLWTFGGGTKLEIK
